Measurements from patent publication US20240301041A1 (Regeneron, published 2024).

How the values were obtained:
[1] = molecular target: T1, Protein A (purified reagent) (Staphylococcus aureus, UniProt P38507 37-477); experiment: SPR (Biacore), mAb captured by anti-human Fc, Protein A injected, 25 C
T1 construct: also called Protein A (Calbiochem, 539202-5 MG); Protein A reagent

[2] = molecular target: T2, IgG binding protein (Protein A homolog SpsQ/SpsP) on MRSP S. pseudintermedius 88493 (Staphylococcus pseudintermedius); experiment: ELISA, coated S. pseudintermedius 88493, antibody 6.03E-10 M
T2 construct: whole, on cells; also called MRSP Staphylococcus pseudintermedius 88493 (methicillin-resistant)

[3] = molecular target: T3, IgG binding protein (Protein A homolog SpsQ/SpsP) on S. intermedius 27369 (Staphylococcus intermedius); experiment: ELISA, coated S. intermedius 27369, antibody 4.82E-09 M
T3 construct: whole, on cells; also called Staphylococcus intermedius 27369

[4] = molecular target: T4, Protein A on the surface of S. aureus Newman wild-type (Staphylococcus aureus (strain Newman), UniProt P38507 37-477); experiment: ELISA on plate-coated S. aureus Newman WT (grown in TSB)
T4 construct: whole, on cells; also called S. aureus Newman WT; wild-type S. aureus expressing Protein A

[5] = molecular target: T4, Protein A on the surface of S. aureus …; experiment: ELISA, coated S. aureus Newman, antibody 7.54E-11 M
[6] = molecular target: T5, IgG binding protein (Protein A homolog SpsQ/SpsP) on S. pseudintermedius AHDRCC 98200 (Staphylococcus pseudintermedius); experiment: ELISA, coated S. pseudintermedius 98200, antibody 9.42E-12 M
T5 construct: whole, on cells; also called S. pseudintermedius 98200; Staphylococcus pseudintermedius AHDRCC 98200

[7] = molecular target: T5, IgG binding protein (Protein A homolog …); experiment: ELISA, coated S. pseudintermedius 98200, antibody 3.09E-07 M
[8] = molecular target: T3, IgG binding protein (Protein A homolog …); experiment: ELISA, coated S. intermedius 27369, antibody 3.09E-07 M
[9] = molecular target: T2, IgG binding protein (Protein A homolog …); experiment: ELISA, coated S. pseudintermedius 88493, antibody 7.54E-11 M
[10] = molecular target: T5, IgG binding protein (Protein A homolog …); experiment: ELISA, coated S. pseudintermedius 98200, antibody 3.86E-08 M
[11] = molecular target: T2, IgG binding protein (Protein A homolog …); experiment: ELISA, coated S. pseudintermedius 88493, antibody 3.09E-07 M
[12] = molecular target: T4, Protein A on the surface of S. aureus …; experiment: flow cytometry; blocking antibody 1 ug/mL, then Alexa-488 Fc fragment (competitor) on wild-type S. aureus
[13] = molecular target: T5, IgG binding protein (Protein A homolog …); experiment: ELISA, coated S. pseudintermedius 98200, antibody 4.82E-09 M
[14] = molecular target: T5, IgG binding protein (Protein A homolog …); experiment: ELISA, coated S. pseudintermedius 98200, antibody 1.18E-12 M
[15] = molecular target: T4, Protein A on the surface of S. aureus …; experiment: ELISA, coated S. aureus Newman, antibody 4.82E-09 M
[16] = molecular target: T4, Protein A on the surface of S. aureus …; experiment: ELISA, coated S. aureus Newman, antibody 1.47E-13 M
[17] = molecular target: T5, IgG binding protein (Protein A homolog …); experiment: ELISA, coated S. pseudintermedius 98200, antibody 7.54E-11 M
[18] = molecular target: T4, Protein A on the surface of S. aureus …; experiment: ELISA, coated S. aureus Newman, antibody 1.18E-12 M
[19] = molecular target: T4, Protein A on the surface of S. aureus …; experiment: ELISA, coated S. aureus Newman, antibody 3.09E-07 M
[20] = molecular target: T3, IgG binding protein (Protein A homolog …); experiment: ELISA, coated S. intermedius 27369, antibody 3.86E-08 M
[21] = molecular target: T3, IgG binding protein (Protein A homolog …); experiment: cell-based or functional assay
[22] = molecular target: T4, Protein A on the surface of S. aureus …; experiment: cell-based or functional assay
[23] = molecular target: T5, IgG binding protein (Protein A homolog …); experiment: cell-based or functional assay

B1: H1xH15140P*/* (anti-Protein A) (antibody, V domains shown)
VH: EVQLVESGGGLVQPGGSLTLSCTASGFSFSSYVMSWVRQSPGKGLEWVSAIGGSGTSTYYRDSVKGRFTISRDNSKNTLNLQMSSLRAEDTAVYYCARDGLGHRDYWGQGTLVTVSS
VL: DIQMTQSPSSVSASVGDRVTITCRASQGINSWLAWYQQKPGKAPKLLIYAASSLQSGVPSRFSGSGSGTDFTLTISSLQPEDFATYYCQQANSFPFTFGPGTKVDIK
notes: also called anti-Protein A hIgG1*/*; H1xH15140P*/*-L1
Kd [1]: 0.204 nM
koff [1]: 7.78e-05 s⁻¹
kon [1]: 381000 M⁻¹ s⁻¹
t½ [1]: 2.48 h
ELISA luminescent signal [2]: 10000
ELISA luminescent signal [3]: 3030
EC50 [4]: 0.0906 nM
ELISA luminescent signal [5]: 238000
ELISA luminescent signal [6]: 2480
ELISA luminescent signal [7]: 20600
ELISA luminescent signal [8]: 21000
ELISA luminescent signal [9]: 5410
ELISA luminescent signal [10]: 6680
ELISA luminescent signal [11]: 10700
Fc: S. aureus blocking activity (%) [12]: 78%
ELISA luminescent signal [13]: 3400
ELISA luminescent signal [14]: 5020
ELISA luminescent signal [15]: 828000
ELISA luminescent signal [16]: 22000
ELISA luminescent signal [17]: 4680
ELISA luminescent signal [18]: 28400
ELISA luminescent signal [19]: 979000
ELISA luminescent signal [20]: 8310
median cfu/mL after 16 h in 50% normal human serum, mAb 10 ug/mL [21]: 6e+06 cfu/mL
median cfu/mL after 16 h in 50% normal human serum, mAb 30 ug/mL [21]: 8.3e+06 cfu/mL
median cfu/mL after 16 h in 50% normal human serum, mAb 90 ug/mL [21]: 8.5e+06 cfu/mL
median cfu/mL after 16 h in 50% normal human serum, mAb 270 ug/mL [21]: 3.8e+06 cfu/mL
median cfu/mL after 16 h in 50% normal human serum, mAb 10 ug/mL [22]: 4.3e+06 cfu/mL
median cfu/mL after 16 h in 50% normal human serum, mAb 30 ug/mL [22]: 1e+06 cfu/mL
median cfu/mL after 16 h in 50% normal human serum, mAb 90 ug/mL [22]: 600000 cfu/mL
median cfu/mL after 16 h in 50% normal human serum, mAb 270 ug/mL [22]: 180000 cfu/mL
median cfu/mL after 16 h in 50% normal human serum, mAb 10 ug/mL [23]: 7.3e+06 cfu/mL
median cfu/mL after 16 h in 50% normal human serum, mAb 30 ug/mL [23]: 6.8e+06 cfu/mL
median cfu/mL after 16 h in 50% normal human serum, mAb 90 ug/mL [23]: 6.8e+06 cfu/mL
median cfu/mL after 16 h in 50% normal human serum, mAb 270 ug/mL [23]: 4.5e+06 cfu/mL
